From patent US9835633

Tested on: human apolipoprotein E4
Sequence (chain, as listed by the source): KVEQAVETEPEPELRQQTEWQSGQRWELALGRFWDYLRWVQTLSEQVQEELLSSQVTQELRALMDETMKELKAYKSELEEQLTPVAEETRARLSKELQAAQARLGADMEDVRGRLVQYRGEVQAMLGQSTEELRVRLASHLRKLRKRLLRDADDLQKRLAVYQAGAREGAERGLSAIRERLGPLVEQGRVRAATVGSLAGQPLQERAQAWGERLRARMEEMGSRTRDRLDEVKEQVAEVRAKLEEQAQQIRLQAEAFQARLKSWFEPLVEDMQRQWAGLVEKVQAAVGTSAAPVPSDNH

| Substance | apoE fragmentation in NSE-apoE4 primary neurons overexpressing the enzyme |
| --- | --- |
| PCSK1 (Protein Convertase, Subtilisin/Kexin-Type-1), overexpressed by transient transfection | A mild increase of apoE fragmentation was also detected in NSE-apoE4 primary neurons overexpressing PCSK1 or PCSK2 |
| PCSK2 (Protein Convertase, Subtilisin/Kexin-Type-2), overexpressed by transient transfection | A mild increase of apoE fragmentation was also detected in NSE-apoE4 primary neurons overexpressing PCSK1 or PCSK2 |
